In the supplement of paper PMC9112550, “Optimization of the antimicrobial peptide Bac7 by deep mutational scanning” (BMC Biology, 2022):

What follows are sequences tested on Escherichia coli TOP10 (assay: shrunken log2 fold change of peptide-encoding DNA abundance (4.5 h post-induction vs induction); higher = less antimicrobial activity (less host growth inhibition)). Details: time post-induction: 4.5 h; library: site-saturation at positions 5, 18, 19, 20.
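Note: peptides expressed intracellularly from a pBAD plasmid library in pooled LB shake-flask culture, induced with 0.3% L-arabinose, DNA abundance read by NGS, three biological replicates, DESeq2 with apeglm shrinkage.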

Sequence | shrunken log2 fold change
RRIRCRPPRLPRPRPRPSFAPRP | -0.0835
RRIRMRPPRLPRPRPRPIVPPRP | 0.208
RRIRSRPPRLPRPRPRPPIPPRP | 0.0379
RRIRHRPPRLPRPRPRPKYFPRP | -0.0202
RRIRIRPPRLPRPRPRPDNPPRP | -0.152
RRIRFRPPRLPRPRPRPYFYPRP | -0.808
RRIRLRPPRLPRPRPRPIYIPRP | -1.1
RRIRVRPPRLPRPRPRPPTKPRP | 0.417
RRIRHRPPRLPRPRPRPNMEPRP | -0.0709
RRIRIRPPRLPRPRPRPAGCPRP | -0.0691
RRIRLRPPRLPRPRPRPENKPRP | -0.328
RRIRWRPPRLPRPRPRPTCPPRP | 0.187
RRIRQRPPRLPRPRPRPPSHPRP | 0.0871
RRIRPRPPRLPRPRPRPGCKPRP | 0.368
RRIRQRPPRLPRPRPRPHRCPRP | 0.109
RRIRWRPPRLPRPRPRPAVHPRP | 0.631
RRIRTRPPRLPRPRPRPDCLPRP | -0.0333
RRIRYRPPRLPRPRPRPTCLPRP | -0.821
RRIRRRPPRLPRPRPRPLPIPRP | 0.451
RRIRARPPRLPRPRPRPAIMPRP | 0.161
RRIRMRPPRLPRPRPRPIRAPRP | 0.3
RRIRYRPPRLPRPRPRPSPCPRP | -0.8
RRIRPRPPRLPRPRPRPCCRPRP | -0.339
RRIRLRPPRLPRPRPRPINTPRP | -0.881
RRIRHRPPRLPRPRPRPRKIPRP | 0.051

Sequence | shrunken log2 fold change
RRIRFRPPRLPRPRPRPMTCPRP | -0.0088
RRIRWRPPRLPRPRPRPCWTPRP | 0.0677
RRIRPRPPRLPRPRPRPPHAPRP | 0.589
RRIRVRPPRLPRPRPRPFLIPRP | -0.777
RRIRYRPPRLPRPRPRPVAFPRP | -0.717
RRIRWRPPRLPRPRPRPTCCPRP | 1.13
RRIRARPPRLPRPRPRPIHSPRP | -0.184
RRIRRRPPRLPRPRPRPQWYPRP | -0.258
RRIRQRPPRLPRPRPRPEVDPRP | 0.0316
RRIRRRPPRLPRPRPRPNMRPRP | 0.104
RRIRQRPPRLPRPRPRPWGHPRP | -0.0609
RRIRWRPPRLPRPRPRPAMSPRP | 0.403
RRIRYRPPRLPRPRPRPKWSPRP | -0.0252
RRIRCRPPRLPRPRPRPGLLPRP | 0.0187
RRIRYRPPRLPRPRPRPRTEPRP | -0.188
RRIRTRPPRLPRPRPRPKQPPRP | 0.0517
RRIRLRPPRLPRPRPRPRPWPRP | 0.199
RRIRARPPRLPRPRPRPRGMPRP | 0.32
RRIRNRPPRLPRPRPRPIVWPRP | 0.0313
RRIRTRPPRLPRPRPRPVTVPRP | 0.0698
RRIRPRPPRLPRPRPRPCWQPRP | -0.021
RRIRCRPPRLPRPRPRPRGCPRP | 0.395
RRIRARPPRLPRPRPRPTKRPRP | 0.247
RRIRQRPPRLPRPRPRPKLVPRP | -0.0518
RRIRVRPPRLPRPRPRPNARPRP | 0.102

Sequence | shrunken log2 fold change
RRIRNRPPRLPRPRPRPIKVPRP | -0.607
RRIRMRPPRLPRPRPRPNMTPRP | 0.188
RRIRLRPPRLPRPRPRPWMSPRP | -0.55
RRIRDRPPRLPRPRPRPMTGPRP | 0.0274
RRIRHRPPRLPRPRPRPHLYPRP | -0.24
RRIRQRPPRLPRPRPRPHFFPRP | -0.0162
RRIRERPPRLPRPRPRPMYHPRP | -0.594
RRIRVRPPRLPRPRPRPIAGPRP | 0.0142
RRIRTRPPRLPRPRPRPIHSPRP | -0.191
RRIRQRPPRLPRPRPRPDWNPRP | -0.189
RRIRFRPPRLPRPRPRPLCKPRP | 0.0214
RRIRPRPPRLPRPRPRPVWMPRP | 0.136
RRIRFRPPRLPRPRPRPHKQPRP | -0.0759
RRIRFRPPRLPRPRPRPGWKPRP | 0.208
RRIRIRPPRLPRPRPRPIFQPRP | -0.378
RRIRGRPPRLPRPRPRPTAQPRP | 1.35
RRIRARPPRLPRPRPRPTAYPRP | 0.223
RRIRQRPPRLPRPRPRPVRCPRP | 0.841
RRIRQRPPRLPRPRPRPGCHPRP | -0.11
RRIRGRPPRLPRPRPRPIWHPRP | 0.213
RRIRARPPRLPRPRPRPVIQPRP | 0.0904
RRIRLRPPRLPRPRPRPSHKPRP | -0.354
RRIRPRPPRLPRPRPRPPYNPRP | -0.495
RRIRDRPPRLPRPRPRPDTRPRP | 0.203
RRIRHRPPRLPRPRPRPIGWPRP | 0.0927

Sequence | shrunken log2 fold change
RRIRCRPPRLPRPRPRPQLAPRP | 0.163
RRIRCRPPRLPRPRPRPWHNPRP | -0.244
RRIRQRPPRLPRPRPRPWMHPRP | 0.0573
RRIRFRPPRLPRPRPRPIHMPRP | -0.491
RRIRFRPPRLPRPRPRPGINPRP | -0.288
RRIRSRPPRLPRPRPRPLEYPRP | -0.277
RRIRERPPRLPRPRPRPILTPRP | -0.337
RRIRGRPPRLPRPRPRPWNMPRP | -0.0271
RRIRQRPPRLPRPRPRPWRQPRP | 0.029
RRIRFRPPRLPRPRPRPTFHPRP | -0.385
RRIRVRPPRLPRPRPRPHMAPRP | -0.339
RRIRPRPPRLPRPRPRPCEYPRP | 1.65
RRIRARPPRLPRPRPRPNALPRP | 0.296
RRIRVRPPRLPRPRPRPDREPRP | 0.0132
RRIRCRPPRLPRPRPRPRADPRP | 0.454
RRIRQRPPRLPRPRPRPDCSPRP | 0.0489
RRIRQRPPRLPRPRPRPKSFPRP | 0.0406
RRIRDRPPRLPRPRPRPWHQPRP | -0.0511
RRIRWRPPRLPRPRPRPKQFPRP | 0.207
RRIRARPPRLPRPRPRPCYQPRP | -0.232
RRIRARPPRLPRPRPRPINSPRP | -0.213
RRIRCRPPRLPRPRPRPSYCPRP | -0.342
RRIRMRPPRLPRPRPRPSELPRP | 0.12
RRIRPRPPRLPRPRPRPAPPPRP | 0.726
RRIRLRPPRLPRPRPRPSCPPRP | -0.169

Sequence | shrunken log2 fold change
RRIRPRPPRLPRPRPRPAAEPRP | 0.595
RRIRLRPPRLPRPRPRPTPFPRP | 0.253
RRIRARPPRLPRPRPRPRKEPRP | -0.0116
RRIRNRPPRLPRPRPRPDKCPRP | -0.116
RRIRQRPPRLPRPRPRPSTPPRP | -0.311
RRIRIRPPRLPRPRPRPSWSPRP | -0.458
RRIRWRPPRLPRPRPRPKERPRP | 0.0355
RRIRTRPPRLPRPRPRPITKPRP | 0.0123
RRIRFRPPRLPRPRPRPPGRPRP | 0.637
RRIRNRPPRLPRPRPRPDQIPRP | -0.0823
RRIRVRPPRLPRPRPRPQHFPRP | 0.0726
RRIRRRPPRLPRPRPRPWPTPRP | 0.0393
RRIRNRPPRLPRPRPRPRLWPRP | 0.0283
RRIRERPPRLPRPRPRPDHAPRP | -0.318
RRIRQRPPRLPRPRPRPKAEPRP | 0.45
RRIRGRPPRLPRPRPRPTDFPRP | 0.161
RRIRRRPPRLPRPRPRPYKHPRP | -0.89
RRIRRRPPRLPRPRPRPEPGPRP | 0.587
RRIRKRPPRLPRPRPRPLRFPRP | 0.896
RRIRARPPRLPRPRPRPQWHPRP | -0.0862
RRIRKRPPRLPRPRPRPDSLPRP | 0.00855
RRIRMRPPRLPRPRPRPDPQPRP | 0.593
RRIRTRPPRLPRPRPRPKDHPRP | -0.156
RRIRWRPPRLPRPRPRPCPMPRP | -0.0512
RRIRVRPPRLPRPRPRPSNPPRP | -0.454

Sequence | shrunken log2 fold change
RRIRWRPPRLPRPRPRPQFAPRP | 0.189
RRIRARPPRLPRPRPRPCWMPRP | -0.102
RRIRIRPPRLPRPRPRPSFSPRP | -0.357
RRIRIRPPRLPRPRPRPIPEPRP | -0.158
RRIRVRPPRLPRPRPRPLRMPRP | 0.191
RRIRLRPPRLPRPRPRPMSMPRP | 0.125
RRIRKRPPRLPRPRPRPWPWPRP | 0.847
RRIRFRPPRLPRPRPRPSGRPRP | 0.0486
RRIRHRPPRLPRPRPRPQSLPRP | -0.00783
RRIRCRPPRLPRPRPRPVRFPRP | 0.262
RRIRWRPPRLPRPRPRPLCKPRP | 0.116
RRIRRRPPRLPRPRPRPAKSPRP | 0.242
RRIRGRPPRLPRPRPRPMPHPRP | 0.523
RRIRYRPPRLPRPRPRPVLIPRP | -0.00211
RRIRNRPPRLPRPRPRPAHWPRP | 0.142
RRIRMRPPRLPRPRPRPEDDPRP | -0.01
RRIRHRPPRLPRPRPRPDVAPRP | -0.00146
RRIRIRPPRLPRPRPRPRPRPRP | 0.472
RRIRRRPPRLPRPRPRPGMFPRP | 0.00289
RRIRMRPPRLPRPRPRPAVFPRP | 0.383
RRIRQRPPRLPRPRPRPNARPRP | -0.0902
RRIRYRPPRLPRPRPRPPFGPRP | -0.386
RRIRDRPPRLPRPRPRPCFCPRP | -0.054
RRIRRRPPRLPRPRPRPPLEPRP | 0.739
RRIRERPPRLPRPRPRPCGIPRP | 0.00383
